The target in assay [1] is Keap1-Nrf2 protein-protein interaction (CFP-Nrf2 and YFP-Kelch) (Homo sapiens, UniProt Q14145). As to the kind of experiment: FRET competition assay. Type of assay: binding. Conditions: for binding activity relative to peptide 1: FRET competition, 7-mer peptides; for effect on association between CFP-Nrf2 and YFP-Kelch (FRET efficiency): unlabeled 16-mer peptides, competition assay, Fig. 5.

Assay [2] concerns Keap1-Nrf2 protein-protein interaction. Particulars: read-out: FP IC50 ± SE; previously described FP assay; cited from earlier work.
The target of assay [3] is T1, YFP conjugated to the human Keap1 Kelch domain (YFP-Kelch) (human, UniProt Q14145 321-609). As to the kind of experiment: FRET or BRET.
T1 sequence (Q14145 321-609): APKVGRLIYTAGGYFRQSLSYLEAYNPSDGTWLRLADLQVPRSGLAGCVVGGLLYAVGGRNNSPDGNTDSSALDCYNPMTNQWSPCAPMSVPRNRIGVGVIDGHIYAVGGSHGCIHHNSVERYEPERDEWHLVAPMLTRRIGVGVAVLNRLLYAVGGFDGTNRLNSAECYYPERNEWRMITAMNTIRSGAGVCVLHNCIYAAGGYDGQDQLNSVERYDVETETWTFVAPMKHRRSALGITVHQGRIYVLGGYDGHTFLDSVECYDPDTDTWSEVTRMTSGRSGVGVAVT
Assay [4] deals with T1, YFP conjugated to the human Keap1 Kelch …. Nature of the assay: FRET or BRET. The source holds these as a separate data set. In general terms: In BRET a luciferase serves as donor, and the signal depends on an acceptor being close.
For assay [5] the target is unchanged. Nature of the assay: FRET or BRET. The source holds these as a separate data set.

Read-outs that look alike come from different tables or passages of the source. Where a SMILES comes first, the peptide text is derived from it. The star is where a group is joined. Bz = O=C(c1ccccc1)*

Sequence of Keap1-Nrf2 protein-protein interaction (CFP-Nrf2 and YFP-Kelch) (Q14145 321-609): as above

Consider `CC(C)C[C@H](NC(=O)[C@H](CCC(=O)O)NC(=O)CNC(=O)[C@@H](NC(=O)[C@H](CCC(=O)O)NC(=O)[C@@H]1CCCN1C(=O)[C@H](CC(=O)O)NC(=O)c1ccccc1)[C@@H](C)O)C(=O)O` [Peptide 4, Ph-DPETGEL-OH] (Bz-DPETGEL-OH; N-terminus assumed), for which the “binding activity relative to peptide 1” value in assay [1] is reported as “increased binding activity”. Also, the IC50 in assay [2] was 160 ± 20 nM. Take `CC(=O)N[C@@H](CC(=O)O)C(=O)N1CCC[C@H]1C(=O)N[C@@H](CCC(=O)O)C(=O)N[C@H](C(=O)NCC(=O)N[C@@H](CCC(=O)O)C(=O)N[C@@H](Cc1ccccc1)C(=O)O)[C@@H](C)O` [Peptide 3, Ac-DPETGEF-OH] (Ac-DPETGEF-OH): in assay [1], the “binding activity relative to peptide 1” value was “increased binding activity”. In assay [2], the IC50 was 250 ± 40 nM. For “T80K (AFFAQLQLDEEKGEFL) [Peptide T80K, reference compound]”, the “effect on association between CFP-Nrf2 and YFP-Kelch (FRET efficiency)” value in assay [1] is “unable to perturb the association”. On the same count and under the same terms, as for E78P/F83L (AFFAQLQLDPETGELL), the entry is “dose-dependent reduction in FE”; as for “E79Q (AFFAQLQLDEQTGEFL) [Peptide E79Q, reference compound]”, “unable to perturb the association”; as for “E82D (AFFAQLQLDEETGDFL) [Peptide E82D, reference compound]”, “unable to perturb the association”. Take AFFAQLQLDPETGELL [E78P/F83L unlabeled 16-mer peptide]: the IC50 in assay [3] is 80 nM. Molecule AFFAQLQLDPETGELL [CFP-E78P/F83L] showed a Kd in assay [4] of 40 nM. Turning to AFFAQLQLDEQTGEFL [CFP-E79Q], the Kd in assay [4] was > 100 nM. Same read-out and setting: the value for AFFAQLQLDEEKGEFL [CFP-T80K] was > 100 nM. Ac-DPETGEF-OH [peptide 3, Ac-DPETGEF-OH]: in assay [5], inhibition was half-maximal at 330 nM (IC50). As to AFFAQLQLDEETGDFL [CFP-E82D], the Kd in assay [4] was > 100 nM.

What is called IC50 is the point on the concentration scale where inhibition reaches its midpoint. The Kd is the constant that tells how readily two partners part at equilibrium. High values mean lower affinity, low ones higher affinity.

(Values after article PMC3843635 (Protein Science : A Publication of the Protein Society, 2013).)
